The results in this text go back to paper PMC11879393 (Nucleic Acids Research, 2025).

This assay has as its target T1, Rec27 (untagged, His6-SUMO tag removed by Ulp1) (S. pombe, UniProt Q9USR4 1-125).
T1 sequence (looked up): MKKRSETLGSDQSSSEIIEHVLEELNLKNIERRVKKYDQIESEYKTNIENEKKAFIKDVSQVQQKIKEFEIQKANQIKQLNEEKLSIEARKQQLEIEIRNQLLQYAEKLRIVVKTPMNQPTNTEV
The assay is described as follows: mass photometry.

B1: Mug20 (untagged) (natural protein, S. pombe, UniProt Q9HGN4 1-151, looked up)
chain: MSEIITSLQTELSNRHANMVSEAVLAFSEHHDSALHSYFLNARVKDVILESLRTTEEKLRALDKLQLDASKNLSNLLVEYNSINAELESVNSKISSISSQEYALEEFQALSQNFEKNLVQHRRNSQNKLKCAMEKLKMIETSTHKAILDNF
Broadly, the stoichiometry N is the number of molecules, sites or subunits per partner or assembly. As to B1, the “stoichiometry N” value is 1.

B2: Rec25 (untagged) (natural protein, S. pombe, UniProt Q9C115 1-150, looked up)
chain: MVKGSVTNTSSIVKQFEKSSIKHETETIAFAKQFINECIREFQEQKDNVVEEKNTDQNHQNQNQEGVIIEIYQELLQKVDLISSELRQNLSSLQLRFQEVERDTGHDLLNVLNSLSQEARLAQKVLEEDGSQQGSQLIQGLLTCFQSTGN
With B2, the “stoichiometry N” value turned out to be 1.
